Test results taken from publication PMC11524007.

What was measured:
[1] = molecular target: PD-1 (human (endogenous in patient renal tissue)) (UniProt Q15116); test: FRET or BRET; FuncOmap: Ef computed for each coincidence region of the two-site aiFRET/FLIM images of tissue microarray cores (HIF1β/HIF2α: B7, A5; PD-1/PD-L1: B7, B5, A5); Otsu thresholding; Ef below 4% regarded as non-interactive
[2] = molecular target: PD-1 (human (endogenous in patient renal tissue)) (UniProt Q15116); test: FRET or BRET; two-site aiFRET read by frequency-domain FLIM on tissue microarray cores (normal renal tissue B7, ccRCC cores A1 and A2); median Ef over 10-20 hand-picked regions of interest; donor ATTO488 on HIF1β or PD-1, acceptor Alexa594 (TSA) on HIF2α or PD-L1; Ef below 4% regarded as non-interactive
[3] = molecular target: HIF1β (human (endogenous in LS174T and in patient renal tissue)) (UniProt P27540); test: FRET or BRET; FuncOmap: Ef computed for each coincidence region of the two-site aiFRET/FLIM images of tissue microarray cores (HIF1β/HIF2α: B7, A5; PD-1/PD-L1: B7, B5, A5); Otsu thresholding; Ef below 4% regarded as non-interactive
Sequence of HIF1β (human (endogenous in LS174T and in patient renal tissue)) (P27540 whole entry): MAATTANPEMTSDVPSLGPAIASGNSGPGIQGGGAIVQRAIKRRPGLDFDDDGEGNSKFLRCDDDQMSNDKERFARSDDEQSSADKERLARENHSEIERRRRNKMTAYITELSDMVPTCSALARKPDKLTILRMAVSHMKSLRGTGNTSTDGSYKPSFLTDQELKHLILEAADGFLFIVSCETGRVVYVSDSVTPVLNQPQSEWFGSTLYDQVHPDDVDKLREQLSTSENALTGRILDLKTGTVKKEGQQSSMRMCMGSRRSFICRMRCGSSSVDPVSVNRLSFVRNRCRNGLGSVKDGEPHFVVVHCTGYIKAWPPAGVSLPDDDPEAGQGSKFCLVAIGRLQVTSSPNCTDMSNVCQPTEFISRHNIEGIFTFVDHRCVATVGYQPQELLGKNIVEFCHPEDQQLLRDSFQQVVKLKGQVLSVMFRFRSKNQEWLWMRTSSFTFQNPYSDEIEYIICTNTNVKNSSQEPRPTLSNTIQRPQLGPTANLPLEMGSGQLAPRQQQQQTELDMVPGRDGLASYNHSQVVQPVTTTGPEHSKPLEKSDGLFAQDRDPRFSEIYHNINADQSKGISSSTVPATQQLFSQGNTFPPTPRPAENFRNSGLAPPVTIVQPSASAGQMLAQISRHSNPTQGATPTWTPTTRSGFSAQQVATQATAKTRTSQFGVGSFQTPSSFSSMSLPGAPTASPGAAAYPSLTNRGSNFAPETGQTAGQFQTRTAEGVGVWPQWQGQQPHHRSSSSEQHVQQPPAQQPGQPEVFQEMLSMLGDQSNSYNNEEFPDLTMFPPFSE

[4] = molecular target: HIF1β (human (endogenous in LS174T and in patient renal tissue)) (UniProt P27540); test: FRET or BRET; FuncOmap: Ef computed for each coincidence region of the two-site aFRET/FLIM images, HIF1β/HIF2α in ccRCC core B5; Otsu thresholding; Ef below 4% regarded as non-interactive
[5] = molecular target: HIF1β (human (endogenous in LS174T and in patient renal tissue)) (UniProt P27540); test: FRET or BRET; two-site aiFRET read by frequency-domain FLIM on tissue microarray cores (normal renal tissue B7, ccRCC cores A1 and A2); median Ef over 10-20 hand-picked regions of interest; donor ATTO488 on HIF1β or PD-1, acceptor Alexa594 (TSA) on HIF2α or PD-L1; Ef below 4% regarded as non-interactive
[6] = molecular target: HIF1β (human (endogenous in LS174T and in patient renal tissue)) (UniProt P27540); test: FRET or BRET; two-site amplified FRET (aFRET) read by frequency-domain FLIM on PFA-fixed, permeabilised LS174T cells under hypoxia (1% O2, 48 h); donor ATTO488 on anti-HIF-1β, acceptor Alexa594 (TSA) on anti-HIF-2α; Ef below 4% regarded as non-interactive

Sequence of PD-1 (human (endogenous in patient renal tissue)) (Q15116 25-288): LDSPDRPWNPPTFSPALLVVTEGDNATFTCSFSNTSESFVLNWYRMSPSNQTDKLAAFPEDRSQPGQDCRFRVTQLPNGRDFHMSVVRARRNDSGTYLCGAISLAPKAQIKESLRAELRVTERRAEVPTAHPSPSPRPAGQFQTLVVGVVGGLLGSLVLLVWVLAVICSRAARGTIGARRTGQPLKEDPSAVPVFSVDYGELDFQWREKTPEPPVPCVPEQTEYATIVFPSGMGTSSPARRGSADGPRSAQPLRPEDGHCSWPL
Sequence of PD-L1 (Q9NZQ7 19-290): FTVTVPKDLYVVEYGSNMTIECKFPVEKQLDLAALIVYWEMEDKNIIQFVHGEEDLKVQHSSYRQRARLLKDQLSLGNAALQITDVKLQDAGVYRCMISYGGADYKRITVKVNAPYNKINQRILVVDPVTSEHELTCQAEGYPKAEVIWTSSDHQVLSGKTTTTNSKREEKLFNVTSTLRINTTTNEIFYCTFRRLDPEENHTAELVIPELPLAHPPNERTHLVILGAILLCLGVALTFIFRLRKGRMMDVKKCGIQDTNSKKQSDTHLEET

Substance “PD-L1 (from UniProt Q9NZQ7 19-290) (ligand)” has an Ef, core A5, region 57 [1] of 0%, an Ef, core A5, region 63 [1] of 10.9% and an Ef, core A5, region 92 [1] of 8.6%. For the same substance, the Ef, core A5, region 110 [1] was 8.34%, the Ef, core A5, region 186 [1] was 8.16% and the Ef, core A5, region 421 [1] was 5.03%. The Ef, core A5, region 448 [1] was 7.7%, the Ef, core A5, region 482 [1] was 9.31% and the Ef, core A5, region 505 [1] was 7.72%. For the same substance, the Ef, core A5, region 564 [1] was 8.82%, the Ef, core A5, region 639 [1] was 11.2% and the Ef, core A5, region 653 [1] was 12.1%. It also gave an Ef, core A5, region 812 [1] of 16.7%, an Ef, core A5, region 823 [1] of 9.22% and an Ef, core A5, region 929 [1] of 8.25%. The Ef, core A5, region 949 [1] was 6.49%, the Ef, core A5, region 1053 [1] was 12.9% and the Ef, core A5, region 1064 [1] was 10.6%. For the same substance, the Ef, core A5, region 1113 [1] was 4.28%, the Ef, core A5, region 1241 [1] was 6.86% and the Ef, core A5, region 1250 [1] was 10.1%. It also gave an Ef, core A5, region 1255 [1] of 8.24%, an Ef, core A5, region 1274 [1] of 8.32% and an Ef, core A5, region 1360 [1] of 6.13%. For the same substance, the Ef, core A5, region 1405 [1] was 12.4%, the Ef, core B5, region 81 [1] was 21.8% and the Ef, core B5, region 107 [1] was 30.6%. The Ef, core B5, region 176 [1] was 28.4%, the Ef, core B5, region 249 [1] was 23.6% and the Ef, core B5, region 261 [1] was 15.7%. For the same substance, the Ef, core B5, region 373 [1] was 24%, the Ef, core B5, region 546 [1] was 24.8% and the Ef, core B5, region 551 [1] was 16.4%. The Ef, core B5, region 586 [1] was 17%, the Ef, core B5, region 622 [1] was 23.1% and the Ef, core B5, region 774 [1] was 25.1%. For the same substance, the Ef, core B5, region 841 [1] was 29.4%, the Ef, core B5, region 930 [1] was 28.3% and the Ef, core B5, region 1104 [1] was 21.1%. For the same substance, the Ef, core B5, region 1155 [1] was 20.4%, the Ef, core B5, region 1187 [1] was 0% and the Ef, core B5, region 1246 [1] was 15.8%. The Ef, core B5, region 1288 [1] was 26.3%, the Ef, core B5, region 1500 [1] was 28.5% and the Ef, core B5, region 1612 [1] was 13.9%. For the same substance, the Ef, core B5, region 1772 [1] was 20.8%, the Ef, core B5, region 1811 [1] was 24% and the Ef, core B5, region 1878 [1] was 18.1%. For the same substance, the Ef, core B5, region 2043 [1] was 20.4%, the Ef, core B5, region 2232 [1] was 28.3% and the Ef, core B7, region 24 [1] was 21.5%. For the same substance, the Ef, core B7, region 67 [1] was 14.2%, the Ef, core B7, region 102 [1] was 16.1% and the Ef, core B7, region 197 [1] was 21.2%. For the same substance, the Ef, core B7, region 233 [1] was 48.4%, the Ef, core B7, region 299 [1] was 16.3% and the Ef, core B7, region 356 [1] was 20%. It also gave an Ef, core B7, region 384 [1] of 16.5%, an Ef, core B7, region 442 [1] of 19.1% and an Ef, core B7, region 548 [1] of 23.4%. The Ef, core B7, region 561 [1] was 12.8%, the Ef, core B7, region 648 [1] was 26.6% and the Ef, core B7, region 772 [1] was 14.2%. For the same substance, the Ef, core B7, region 905 [1] was 12%, the Ef, core B7, region 984 [1] was 22.3% and the Ef, core B7, region 1009 [1] was 28.9%. For the same substance, the Ef, core B7, region 1273 [1] was 23.4%, the Ef, core B7, region 1454 [1] was 29.9% and the Ef, core B7, region 1657 [1] was 18.1%. The Ef, core B7, region 1711 [1] was 25.7%, the Ef, core B7, region 1750 [1] was 18.1% and the Ef, core B7, region 1861 [1] was 27.4%. For the same substance, the Ef, core B7, region 1919 [1] was 14.7%, the Ef, core B7, region 1932 [1] was 26.4% and the Ef, core B7, region 1973 [1] was 28.4%. It also gave a median Ef, normal tissue [2] of 5.24%.
For “HIF2α (from UniProt Q99814 1-870) (natural protein)”, the Ef, core A5, region 12 [3] was 12.2%, the Ef, core A5, region 78 [3] was 13.5% and the Ef, core A5, region 83 [3] was 12.7%. For the same substance, the Ef, core A5, region 131 [3] was 13.5%, the Ef, core A5, region 168 [3] was 12.2% and the Ef, core A5, region 187 [3] was 12.2%. For the same substance, the Ef, core A5, region 189 [3] was 16%, the Ef, core A5, region 235 [3] was 15.4% and the Ef, core A5, region 276 [3] was 12.2%. It also gave an Ef, core A5, region 294 [3] of 13.5%, an Ef, core A5, region 383 [3] of 16% and an Ef, core A5, region 400 [3] of 12.2%. For the same substance, the Ef, core A5, region 531 [3] was 13.5%, the Ef, core A5, region 619 [3] was 13.5% and the Ef, core A5, region 679 [3] was 12.2%. The Ef, core A5, region 733 [3] was 11.4%, the Ef, core A5, region 817 [3] was 13.5% and the Ef, core A5, region 822 [3] was 12.2%. The Ef, core A5, region 826 [3] was 12.2%, the Ef, core A5, region 829 [3] was 16% and the Ef, core A5, region 1273 [3] was 12.2%. For the same substance, the Ef, core A5, region 1299 [3] was 16%, the Ef, core A5, region 1302 [3] was 19.8% and the Ef, core A5, region 1307 [3] was 21.1%. For the same substance, the Ef, core A5, region 1308 [3] was 14.8%, the Ef, core B7, region 64 [3] was 0% and the Ef, core B7, region 231 [3] was 0%. For the same substance, the Ef, core B7, region 402 [3] was 0%, the Ef, core B7, region 632 [3] was 0% and the Ef, core B7, region 633 [3] was 0%. The Ef, core B7, region 634 [3] was 0%, the Ef, core B7, region 635 [3] was 0% and the Ef, core B7, region 636 [3] was 0%. It also gave an Ef, core B7, region 637 [3] of 0%, an Ef, core B7, region 638 [3] of 0% and an Ef, core B7, region 639 [3] of 0%. For the same substance, the Ef, core B7, region 640 [3] was 0%, the Ef, core B7, region 641 [3] was 0% and the Ef, core B7, region 657 [3] was 0%. The Ef, core B7, region 662 [3] was 7.66%, the Ef, core B7, region 664 [3] was 0% and the Ef, core B7, region 672 [3] was 4.95%. The Ef, core B7, region 685 [3] was 0%, the Ef, core B7, region 686 [3] was 0% and the Ef, core B7, region 712 [3] was 0%. The Ef, core B7, region 719 [3] was 0%, the Ef, core B7, region 729 [3] was 0% and the Ef, core B7, region 754 [3] was 0%. The Ef, core B7, region 943 [3] was 0%, the Ef, core B7, region 950 [3] was 0% and the Ef, core B5, region 61 [4] was 0%. For the same substance, the Ef, core B5, region 80 [4] was 0%, the Ef, core B5, region 103 [4] was 0% and the Ef, core B5, region 140 [4] was 0%. It also gave an Ef, core B5, region 162 [4] of 0%, an Ef, core B5, region 167 [4] of 0% and an Ef, core B5, region 174 [4] of 0%. It also gave an Ef, core B5, region 198 [4] of 0%, an Ef, core B5, region 199 [4] of 0% and an Ef, core B5, region 220 [4] of 0%. It also gave an Ef, core B5, region 230 [4] of 0%, an Ef, core B5, region 242 [4] of 0% and an Ef, core B5, region 246 [4] of 0%. The Ef, core B5, region 277 [4] was 0%, the Ef, core B5, region 318 [4] was 0% and the Ef, core B5, region 431 [4] was 0%. The Ef, core B5, region 452 [4] was 0%, the Ef, core B5, region 585 [4] was 0% and the Ef, core B5, region 586 [4] was 0%. It also gave an Ef, core B5, region 592 [4] of 0%, an Ef, core B5, region 600 [4] of 0% and an Ef, core B5, region 601 [4] of 0%. The Ef, core B5, region 632 [4] was 0%, the Ef, core B5, region 659 [4] was 0% and the Ef, core B5, region 669 [4] was 0%. The median Ef, ccRCC core A1 [5] was 13.6%, the median Ef, ccRCC core A2 [5] was 9.3% and the median Ef, normal tissue [5] was 6.7%. It also gave a median FRET efficiency (hypoxia) [6] of 7.75%.
